# Reference: publication doi:10.1101/2022.12.07.519454 (bioRxiv, 2022)
# T1: GST-tagged yeast Sin3 PAH2 protein (residues 402-473) (S. cerevisiae, UniProt P22579 402-473)
# T1 sequence (looked up): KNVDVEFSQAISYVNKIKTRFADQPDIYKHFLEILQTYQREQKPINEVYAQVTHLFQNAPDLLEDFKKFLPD
# Biological target: T1, GST-tagged yeast Sin3 PAH2 protein …
# Assay: fluorescence polarisation
binder,measurement,value
"LDDDLGTAAAVLSNMR (peptide, UniProt P39001 516-531, looked up) [unlabeled Ume6 SID peptide (Ume6 residues 516-531)]",IC50,53.3 ± 2.4 µM
same,Ki,11.4 µM
